B1: Neuroepithelial cell-transforming gene 1 protein (Homo sapiens), Q7Z628 (parent)
chain: MEPELAAQKQPRPRRRSRRASGLSTEGATGPSADTSGSELDGRCSLRRGSSFTFLTPGPNWDFTLKRKRREKDDDVVSLSSLDLKEPSNKRVRPLARVTSLANLISPVRNGAVRRFGQTIQSFTLRGDHRSPASAQKFSSRSTVPTPAKRRSSALWSEMLDITMKESLTTREIRRQEAIYEMSRGEQDLIEDLKLARKAYHDPMLKLSIMSEEELTHIFGDLDSYIPLHEDLLTRIGEATKPDGTVEQIGHILVSWLPRLNAYRGYCSNQLAAKALLDQKKQDPRVQDFLQRCLESPFSRKLDLWSFLDIPRSRLVKYPLLLKEILKHTPKEHPDVQLLEDAILIIQGVLSDINLKKGESECQYYIDKLEYLDEKQRDPRIEASKVLLCHGELRSKSGHKLYIFLFQDILVLTRPVTRNERHSYQVYRQPIPVQELVLEDLQDGDVRMGGSFRGAFSNSEKAKNIFRIRFHDPSPAQSHTLQANDVFHKQQWFNCIRAAIAPFQSAGSPPELQGLPELHEECEGNHPSARKLTAQRRASTVSSVTQVEVDENAYRCGSGMQMAEDSKSLKTHQTQPGIRRARDKALSGGKRKETLV
B2: Ecotropic viral integration site 5 protein homolog (Homo sapiens), O60447 (parent)
chain: MVTNKMTAAFRNPSGKQVATDKVAEKLSSTLSWVKNTVSHTVSQMASQVASPSTSLHTTSSSTTLSTPALSPSSPSQLSPDDLELLAKLEEQNRLLETDSKSLRSVNGSRRNSGSSLVSSSSASSNLSHLEEDSWILWGRIVNEWEDVRKKKEKQVKELVHKGIPHHFRAIVWQLLCSAQSMPIKDQYSELLKMTSPCEKLIRRDIARTYPEHNFFKEKDSLGQEVLFNVMKAYSLVDREVGYCQGSAFIVGLLLMQMPEEEAFCVFVKLMQDYRLRELFKPSMAELGLCMYQFECMIQEHLPELFVHFQSQSFHTSMYASSWFLTIFLTTFPLPIATRIFDIFMSEGLEIVFRVGLALLQMNQAELMQLDMEGMLQHFQKVIPHQFDGVPDKLIQAAYQVKYNSKKMKKLEKEYTTIKTKEMEEQVEIKRLRTENRLLKQRIETLEKHKCSSNYNEDFVLQLEKELVQARLSEAESQCALKEMQDKVLDIEKRNNSLPDENNIARLQEELIAVKLREAEAIMGLKELRQQVKDLEEHWQRHLARTTGRWKDPPKKNAMNELQDELMTIRLREAETQAEIREIKQRMMEMETQNQINSNHLRRAEQEVISLQEKVQYLSAQNKGLLTQLSEAKRKQAEIECKNKEEVMAVRLREADSIAAVAELRQHIAELEIQKEEGKLQGQLNKSDSNQYIGELKDQIAELNHELRCLKGQRGFSGQPPFDGIHIVNHLIGDDESFHSSDEDFIDNSLQETGVGFPLHGKSGSMSLDPAVADGSESETEDSVLETRESNQVVQKERPPRRRESYSTTV
B3: Plakophilin-4 (Homo sapiens), Q99569 (parent)
chain: MPAPEQASLVEEGQPQTRQEAASTGPGMEPETTATTILASVKEQELQFQRLTRELEVERQIVASQLERCRLGAESPSIASTSSTEKSFPWRSTDVPNTGVSKPRVSDAVQPNNYLIRTEPEQGTLYSPEQTSLHESEGSLGNSRSSTQMNSYSDSGYQEAGSFHNSQNVSKADNRQQHSFIGSTNNHVVRNSRAEGQTLVQPSVANRAMRRVSSVPSRAQSPSYVISTGVSPSRGSLRTSLGSGFGSPSVTDPRPLNPSAYSSTTLPAARAASPYSQRPASPTAIRRIGSVTSRQTSNPNGPTPQYQTTARVGSPLTLTDAQTRVASPSQGQVGSSSPKRSGMTAVPQHLGPSLQRTVHDMEQFGQQQYDIYERMVPPRPDSLTGLRSSYASQHSQLGQDLRSAVSPDLHITPIYEGRTYYSPVYRSPNHGTVELQGSQTALYRTGSVGIGNLQRTSSQRSTLTYQRNNYALNTTATYAEPYRPIQYRVQECNYNRLQHAVPADDGTTRSPSIDSIQKDPREFAWRDPELPEVIHMLQHQFPSVQANAAAYLQHLCFGDNKVKMEVCRLGGIKHLVDLLDHRVLEVQKNACGALRNLVFGKSTDENKIAMKNVGGIPALLRLLRKSIDAEVRELVTGVLWNLSSCDAVKMTIIRDALSTLTNTVIVPHSGWNNSSFDDDHKIKFQTSLVLRNTTGCLRNLSSAGEEARKQMRSCEGLVDSLLYVIHTCVNTSDYDSKTVENCVCTLRNLSYRLELEVPQARLLGLNELDDLLGKESPSKDSEPSCWGKKKKKKKRTPQEDQWDGVGPIPGLSKSPKGVEMLWHPSVVKPYLTLLAESSNPATLEGSAGSLQNLSAGNWKFAAYIRAAVRKEKGLPILVELLRMDNDRVVSSVATALRNMALDVRNKELIGKYAMRDLVNRLPGGNGPSVLSDETMAAICCALHEVTSKNMENAKALADSGGIEKLVNITKGRGDRSSLKVVKAAAQVLNTLWQYRDLRSIYKKDGWNQNHFITPVSTLERDRFKSHPSLSTTNQQMSPIIQSVGSTSSSPALLGIRDPRSEYDRTQPPMQYYNSQGDATHKGLYPGSSKPSPIYISSYSSPAREQNRRLQHQQLYYSQDDSNRKNFDAYRLYLQSPHSYEDPYFDDRVHFPASTDYSTQYGLKSTTNYVDFYSTKRPSYRAEQYPGSPDSWV
B4: Vang-like protein 2 (Homo sapiens), Q9ULK5 (parent)
chain: MDTESQYSGYSYKSGHSRSSRKHRDRRDRHRSKSRDGGRGDKSVTIQAPGEPLLDNESTRGDERDDNWGETTTVVTGTSEHSISHDDLTRIAKDMEDSVPLDCSRHLGVAAGATLALLSFLTPLAFLLLPPLLWREELEPCGTACEGLFISVAFKLLILLLGSWALFFRRPKASLPRVFVLRALLMVLVFLLVVSYWLFYGVRILDARERSYQGVVQFAVSLVDALLFVHYLAVVLLELRQLQPQFTLKVVRSTDGASRFYNVGHLSIQRVAVWILEKYYHDFPVYNPALLNLPKSVLAKKVSGFKVYSLGEENSTNNSTGQSRAVIAAAARRRDNSHNEYYYEEAEHERRVRKRRARLVVAVEEAFTHIKRLQEEEQKNPREVMDPREAAQAIFASMARAMQKYLRTTKQQPYHTMESILQHLEFCITHDMTPKAFLERYLAAGPTIQYHKERWLAKQWTLVSEEPVTNGLKDGIVFLLKRQDFSLVVSTKKVPFFKLSEEFVDPKSHKFVMRLQSETSV
B5: Vang-like protein 1 (Homo sapiens), Q8TAA9 (parent)
chain: MDTESTYSGYSYYSSHSKKSHRQGERTRERHKSPRNKDGRGSEKSVTIQPPTGEPLLGNDSTRTEEVQDDNWGETTTAITGTSEHSISQEDIARISKDMEDSVGLDCKRYLGLTVASFLGLLVFLTPIAFILLPPILWRDELEPCGTICEGLFISMAFKLLILLIGTWALFFRKRRADMPRVFVFRALLLVLIFLFVVSYWLFYGVRILDSRDRNYQGIVQYAVSLVDALLFIHYLAIVLLELRQLQPMFTLQVVRSTDGESRFYSLGHLSIQRAALVVLENYYKDFTIYNPNLLTASKFRAAKHMAGLKVYNVDGPSNNATGQSRAMIAAAARRRDSSHNELYYEEAEHERRVKKRKARLVVAVEEAFIHIQRLQAEEQQKAPGEVMDPREAAQAIFPSMARALQKYLRITRQQNYHSMESILQHLAFCITNGMTPKAFLERYLSAGPTLQYDKDRWLSTQWRLVSDEAVTNGLRDGIVFVLKCLDFSLVVNVKKIPFIILSEEFIDPKSHKFVLRLQSETSV
B6: 5-hydroxytryptamine receptor 2C (Homo sapiens), P28335 (parent)
chain: MVNLRNAVHSFLVHLIGLLVWQSDISVSPVAAIVTDIFNTSDGGRFKFPDGVQNWPALSIVIIIIMTIGGNILVIMAVSMEKKLHNATNYFLMSLAIADMLVGLLVMPLSLLAILYDYVWPLPRYLCPVWISLDVLFSTASIMHLCAISLDRYVAIRNPIEHSRFNSRTKAIMKIAIVWAISIGVSVPIPVIGLRDEEKVFVNNTTCVLNDPNFVLIGSFVAFFIPLTIMVITYCLTIYVLRRQALMLLHGHTEEPPGLSLDFLKCCKRNTAEEENSANPNQDQNARRRKKKERRPRGTMQAINNERKASKVLGIVFFVFLIMWCPFFITNILSVLCEKSCNQKLMEKLLNVFVWIGYVCSGINPLVYTLFNKIYRRAFSNYLRCNYKVEKKPPVRQIPRVAATALSGRELNVNIYRHTNEPVIEKASDNEPGIEMQVENLELPVNPSSVVSERISSV

Variants of: B1
Settings: with dlg1_human DLG1, Q12959
Target sequence in this assay (Q12959 whole entry, looked up): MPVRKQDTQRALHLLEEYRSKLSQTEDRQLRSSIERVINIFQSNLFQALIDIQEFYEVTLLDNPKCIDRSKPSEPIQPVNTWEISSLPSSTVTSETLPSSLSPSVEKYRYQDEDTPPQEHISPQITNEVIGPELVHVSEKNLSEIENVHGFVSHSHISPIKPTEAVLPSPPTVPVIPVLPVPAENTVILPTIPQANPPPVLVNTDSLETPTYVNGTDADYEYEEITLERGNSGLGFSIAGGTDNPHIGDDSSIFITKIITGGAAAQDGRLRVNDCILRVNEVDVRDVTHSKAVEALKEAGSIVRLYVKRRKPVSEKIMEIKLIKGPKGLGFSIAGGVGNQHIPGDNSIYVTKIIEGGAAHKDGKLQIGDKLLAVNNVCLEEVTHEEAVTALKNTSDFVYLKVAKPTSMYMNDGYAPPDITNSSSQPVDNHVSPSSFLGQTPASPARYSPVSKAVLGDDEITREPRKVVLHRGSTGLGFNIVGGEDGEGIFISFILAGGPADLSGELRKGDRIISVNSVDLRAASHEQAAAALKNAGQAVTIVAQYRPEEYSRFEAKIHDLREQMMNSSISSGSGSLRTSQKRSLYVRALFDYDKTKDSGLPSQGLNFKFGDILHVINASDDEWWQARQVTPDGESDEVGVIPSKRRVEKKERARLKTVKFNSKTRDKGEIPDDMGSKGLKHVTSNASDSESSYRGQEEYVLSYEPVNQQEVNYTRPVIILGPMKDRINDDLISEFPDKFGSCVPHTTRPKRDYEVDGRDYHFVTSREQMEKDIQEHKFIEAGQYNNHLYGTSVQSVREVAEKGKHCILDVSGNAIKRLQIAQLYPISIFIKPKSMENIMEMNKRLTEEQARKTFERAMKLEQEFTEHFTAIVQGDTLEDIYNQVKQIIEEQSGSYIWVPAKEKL

Row | Variant | effect of a mutation on the interaction
1 | T594E | disrupting interaction strength

Variants of: B2
Settings: with dlg1_human DLG1, Q12959
Target sequence in this assay (Q12959 whole entry, looked up): as above

Row | Variant | effect of a mutation on the interaction
2 | S805E | decreasing interaction strength

Variants of: B3
Settings: with dlg1_human DLG1, Q12959
Target sequence in this assay (Q12959 whole entry, looked up): as above

Row | Variant | effect of a mutation on the interaction
3 | S1190E | disrupting interaction strength

Variants of: B4
Settings: with dlg1_human DLG1, Q12959
Target sequence in this assay (Q12959 whole entry, looked up): as above

Row | Variant | effect of a mutation on the interaction
4 | S517E;S520E | with no effect
5 | S520E | increasing interaction strength

Variants of: B5
Settings: with dlg1_human DLG1, Q12959
Target sequence in this assay (Q12959 whole entry, looked up): as above

Row | Variant | effect of a mutation on the interaction
6 | S523E | increasing interaction strength

Variants of: B6
Settings: with dlg1_human DLG1, Q12959
Target sequence in this assay (Q12959 whole entry, looked up): as above

Row | Variant | effect of a mutation on the interaction
7 | S457E | with no effect

Reference: IntAct's records for PubMed 30126976
